Measured values taken from article doi:10.1101/2022.08.03.502719.

Assays:
[1] = biological target: WN peptide HLA-E single chain trimer (soluble) (human); assay: SPR
[2] = biological target: VL9 peptide HLA-E single chain trimer (soluble) (human); assay: SPR

Row | Kd [1] [µM] | Kd [2] [µM] | Substance
1 | 41.5 | 8.2 | CD94/NKG2A single-chain fusion protein (NKG2A ectodomain-GGSGGS-CD94 ectodomain), soluble, for SPR (from UniProt P26715 94-233; Q13241 32-179) (receptor)
2 | 17.4 | 21.4 | CD94/NKG2C single-chain fusion protein (NKG2C ectodomain-GGSGGS-CD94 ectodomain), soluble, for SPR (from UniProt P26717 94-231; Q13241 32-179) (receptor)
